± gives the uncertainty stated by the source.
Assay: amyloid nucleation score (Sup35N fusion, yeast selection) (log enrichment); library NNK1; higher = more nucleation; inactive = no reads after selection
Procedure, shortened: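 The nucleation score is the DiMSum log enrichment of output over input reads, centred on the mode score of non-aggregating sequences. Only sequences with 100 or more input reads were scored, using Illumina sequencing of input and output plasmid inserts. Psi-negative yeast expressing Sup35N fused to peptides of 20 random codons were induced 24 hours with 100 μM copper sulfate and grown 7 days at 30°C on medium lacking adenine and uracil.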

Row | Substance | amyloid nucleation score
1 | GWYFPILRDLRNVGGVF | -0.677 ± 1.1
2 | RSNEIVEFGSPWYKMTKGMR | 0.44 ± 0.31
3 | TLYPHTGEGGKRLDLGCLSR | 1.39 ± 0.48
4 | TRALVFRQYYIAPVHCYYLG | 3.54 ± 0.19
5 | TLGPAWNVKFAWVFSFLVCI | 0.933 ± 0.7
6 | GQFEHGVGVQQSSGSTQRWL | -1.21 ± 2.4
7 | RLSNYFNLECEQIRSYYRYM | 1.85 ± 0.11
8 | YCIGYGKICSYMRIVSSGLQ | 0.901 ± 0.24
9 | GKHSLSPVYLWYGNNY | 0.707 ± 0.52
10 | SILMIMMTLSSVQRLMLTGS | -0.161 ± 0.71
11 | THWLNRTGCVRTHPVQSGKE | -1.09 ± 1
12 | KTYRAIQLSYRIPMKMFRFD | -0.3 ± 0.25
13 | PIYVAGLGIVI | -0.308 ± 1.1
14 | CLLFTEMFTPLVEVAESM | -0.038 ± 0.48
15 | MRIHCVN | -0.529 ± 2.1
16 | WDALLPLPAEFAYRATTMHA | 0.444 ± 1.1
17 | TVPLEIIL | 0.382 ± 0.52
18 | GLMLHCGGLCWLLVVV | -0.539 ± 0.41
19 | SCVQRVLSIVNSFGRRSQTR | 0.269 ± 0.43
20 | TPLKEHLLNVVRMLGKIDCD | 0.177 ± 0.42
21 | QGIVAVLED | inactive
22 | CHLTMIMNLVIMMAWNPLHC | 0.765 ± 0.47

Row | Substance | amyloid nucleation score
23 | SLWVWRNAWLVHLYRL | -0.206 ± 0.54
24 | QISRLKHYQTHVRMLLTLEG | -0.068 ± 0.42
25 | MREELRGSETG | -0.685 ± 0.63
26 | YAEVGGLYSTSGVRRKNGGR | 0.346 ± 0.32
27 | TIVELFYDRSLR | 1.17 ± 0.33
28 | HLIWL | -0.203 ± 1.1
29 | KTHQLTSRTEWLYGVGVSAQ | -1.78 ± 2.4
30 | YNREWYYIWLLREFDVRKHS | 1.43 ± 0.53
31 | YLIYVMPADVMAYWYCFT | -0.379 ± 0.61
32 | AQQGIYCRCTVCGQ | 1.41 ± 0.28
33 | ICQTFASCEFDGCLLH | 3.47 ± 0.12
34 | VICSHLVSITYYLY | 3.59 ± 0.057
35 | TFIAGAI | -0.44 ± 0.37
36 | YSTYLSS | 1.4 ± 0.66
37 | FCFILSNVFLGLWMI | -1.37 ± 2.7
38 | PRNVFMSKTNNHFQRAFSVT | 0.925 ± 0.69
39 | TWLQPLNRTMNWMTSTAGFR | inactive
40 | WCMGHNSYYVKEIVIDVLWL | inactive
41 | TGLSWVYSFRIEYVKVGFY | 0.426 ± 0.9
42 | REGWLITWRFNSW | inactive
43 | QVTRDGSYVGCGGGRRREMC | -0.359 ± 1.9
44 | ESVIFFSCTYSSMMVSWTSR | 0.382 ± 1.4

Row | Substance | amyloid nucleation score
45 | MYWESSSHEHVSEKPVRLIL | 1.07 ± 0.84
46 | YTQFYVLESIYRTTLCP | 0.554 ± 0.58
47 | NTIRFAHLLV | -0.318 ± 0.35
48 | VFDAKGLNAHFNEVNVVYIR | 4.77 ± 0.062
49 | MFFSSIYVAYYGLLLIYSYM | inactive
50 | ESDPGCPVAVIKGPCT | 0.225 ± 0.8
51 | VMVRTCACFIR | 0.883 ± 0.51
52 | WNIGYNFVSDSLPPRNYFVE | -0.198 ± 0.37
53 | CILSSHL | 2.61 ± 0.33
54 | NEIYKTA | -1.12 ± 2.7
55 | LFVTCPHLSTQ | 1.26 ± 0.69
56 | GIYNLHQFTCLFEAAAIACD | -0.478 ± 0.79
57 | TYDGSKAIVALSKGNKN | 0.915 ± 0.51
58 | RDFYNCS | 0.166 ± 0.26
59 | SRVSFLNFWN | 4.27 ± 0.15
60 | HGRLTYSDVVNVRTFPGLMK | -0.232 ± 0.25
61 | KREFQCWTSACFFDISSAEL | 0.34 ± 0.79
62 | TWYHGSRMSLRVTGRILQCG | -0.43 ± 1.1
63 | VFRFRGCF | 1.62 ± 0.38
64 | CYLPWDSKNGVEDLYWYEFK | 1.79 ± 0.13
65 | WSKTSDDSVWWTWTDGIMFV | 1.92 ± 0.46
66 | FWSLYD | 0.003 ± 0.4

Row | Substance | amyloid nucleation score
67 | RCWRSLPRLLRQFMDSSRTI | -0.27 ± 0.61
68 | LTGFCHFYGSIFTSYMKSL | inactive
69 | TLCQNSGKFCMYTWLSVYVD | 0.423 ± 0.26
70 | LCMNCVIQSDKRSSLLCYER | -0.636 ± 1.2
71 | VNPYMMLAQY | 0.748 ± 0.38
72 | GFFLSPLVRIISMTEMKVMK | 0.571 ± 1.2
73 | HNCDYNCFNRGAHRVSEVGI | inactive
74 | HCINGCYNSEDVIIVDLLAF | inactive
75 | IDKMELFSRSKHKWYMASAI | -0.267 ± 0.79
76 | PSSNLRFFTLNFAFLVPISS | -0.521 ± 0.64
77 | GSKGMGSERQVECFTKI | -0.505 ± 0.37
78 | LWMYYESFF | 0.843 ± 0.6
79 | CFFDGICLDQERYVMNFRAF | 0.104 ± 0.51
80 | VGVGFIHNLGTLEIQVT | -0.359 ± 0.36
81 | KFLRGYSCNVRSRPTRDRSV | inactive
82 | TNSPKKGMNGYGFNATVWTS | 0.413 ± 0.9
83 | RFSSQTFY | -1.08 ± 2.4
84 | SELWDLG | -0.197 ± 0.85
85 | PFGLRYQLRIRHYTMIEELS | 1.88 ± 0.29

Reference: the supplement of paper PMC12042874
